Laboratory results reported in patent publication US20210261648A1 (published 2021).
Substitutions are numbered along the chain they refer to.

B1: IL6R-BP084/IL6R-L (antibody, human IgG1, kappa)
heavy: QVQLQESGPGLVKPSETLSLTCAVSGHSISHDHAWSWVRQPPGEGLEWIGFISYSGITNYNPSLQGRVTISRDNSKNTLYLQMNSLRAEDTAVYYCARSLARTTAMDYWGEGTLVTVSSASTKGPSVFPLAPSSKSTSGGTAALGCLVKDYFPEPVTVSWNSGALTSGVHTFPAVLQSSGLYSLSSVVTVPSSSLGTQTYICNVNHKPSNTKVDKKVEPKSCDKTHTCPPCPAPELLGGDSVFLFPPKPKDTLMISRTPEVTCVVVDVSHEDPEVKFNWYVDGVEVHNAKTKPREEQYNSTYRVVSVLTVLHQDWLNGKEYKCKMSNKALPKPIEKTISKAKGQPREPQVYTLPPSRDELTKNQVSLTCLVKGFYPSDIAVEWESNGQPENNYKTTPPVLDSDGSFFLYSKLTVDKSRWQQGNVFSCSVMHEALHNHYTQESLSLSP
light: not shown
B2: IL6R-BP183/IL6R-L (antibody, human IgG1, kappa)
heavy: B1 heavy with E235D, L236Y, P273G, M325V, K328A
light: not shown
B3: IL6R-BP177/IL6R-L (antibody, human IgG1, kappa)
heavy: B1 heavy with E235D, L236Y, G239D, P273G, M325V, K328D
light: not shown
B4: IL6R-BP149/IL6R-L (antibody, human IgG1, kappa)
heavy: B1 heavy with E235D, L236Y, G239D, Y298D, M325V, K328A
light: not shown
B5: IL6R-BP147/IL6R-L (antibody, human IgG1, kappa)
heavy: B1 heavy with L236Y, G239D, M325V, K328A
light: not shown
B6: IL6R-BP197/IL6R-L (antibody, human IgG1, kappa)
heavy: B1 heavy with E235D, L236Y, G239D, H270D, P273G, Y298D, M325V, K328D
light: not shown
B7: IL6R-BP089/IL6R-L (antibody, human IgG1, kappa)
heavy: B1 heavy with L236Y, M325V, K328A
light: not shown
B8: IL6R-BP178/IL6R-L (antibody, human IgG1, kappa)
heavy: B1 heavy with E235D, G239D, P273G, M325V
light: not shown
B9: IL6R-BP198/IL6R-L (antibody, human IgG1, kappa)
heavy: B1 heavy with E235D, L236Y, H270D, P273G, M325V, K328A
light: not shown
B10: IL6R-BP130/IL6R-L (antibody, human IgG1, kappa)
heavy: B1 heavy with E235D
light: not shown
B11: IL6R-BP145/IL6R-L (antibody, human IgG1, kappa)
heavy: B1 heavy with L236Y, G239D, M325V, K332A
light: not shown
B12: IL6R-BP146/IL6R-L (antibody, human IgG1, kappa)
heavy: B1 heavy with L236Y, G239D, M325V, K328A, K332A
light: not shown
B13: IL6R-BP194/IL6R-L (antibody, human IgG1, kappa)
heavy: B1 heavy with E235D, L236Y, G239D, H270D, P273G, M325V, K328A
light: not shown
B14: IL6R-BP195/IL6R-L (antibody, human IgG1, kappa)
heavy: B1 heavy with E235D, L236Y, G239D, H270D, P273G, Y298D, M325V, K328A
light: not shown
B15: IL6R-BP186/IL6R-L (antibody, human IgG1, kappa)
heavy: B1 heavy with E235D, L236Y, G239D, P273G, Y298D, M325V, K328A
light: not shown
B16: IL6R-BP151/IL6R-L (antibody, human IgG1, kappa)
heavy: B1 heavy with E235D, L236Y, G239D, M325V, K328A, K332R
light: not shown
B17: IL6R-BP196/IL6R-L (antibody, human IgG1, kappa)
heavy: B1 heavy with L236Y, H270D, P273G, M325V, K328A
light: not shown
B18: IL6R-BP187/IL6R-L (antibody, human IgG1, kappa)
heavy: B1 heavy with L236Y, P273G, M325V, K328A
light: not shown
B19: IL6R-BP179/IL6R-L (antibody, human IgG1, kappa)
heavy: B1 heavy with G239D, P273G, M325V, K328A
light: not shown
B20: IL6R-BP152/IL6R-L (antibody, human IgG1, kappa)
heavy: B1 heavy with E235D, L236Y, G239D, Y298D, M325V, K328A, K332R
light: not shown
B21: IL6R-BP190/IL6R-L (antibody, human IgG1, kappa)
heavy: B1 heavy with G239D, H270D, P273G, M325V
light: not shown
B22: IL6R-BP180/IL6R-L (antibody, human IgG1, kappa)
heavy: B1 heavy with G239D, P273G, M325V
light: not shown
B23: IL6R-BP087/IL6R-L (antibody, human IgG1, kappa)
heavy: B1 heavy with L236Y, M325V
light: not shown
B24: IL6R-BP148/IL6R-L (antibody, human IgG1, kappa)
heavy: B1 heavy with E235D, L236Y, G239D, M325V, K328A
light: not shown
B25: IL6R-BP088/IL6R-L (antibody, human IgG1, kappa)
heavy: B1 heavy with G239D, M325V, K328A
light: not shown
B26: IL6R-BP150/IL6R-L (antibody, human IgG1, kappa)
heavy: B1 heavy with L236Y, G239D, M325V, K328A, K332R
light: not shown
B27: IL6R-BP131/IL6R-L (antibody, human IgG1, kappa)
heavy: B1 heavy with E235D, G239D, M325V
light: not shown
B28: IL6R-BP189/IL6R-L (antibody, human IgG1, kappa)
heavy: B1 heavy with G239D, H270D, P273G, M325V, K328A
light: not shown
B29: IL6R-BP559/IL6R-L (antibody, human IgG1, kappa)
heavy: B1 heavy with V266I, S269A, H270E, P273G, E274D, Y298D, M325V, K332A
light: not shown
notes: Alterations in EU numbering, introduced into IL6R-B3

molecular target: T1, FcγRIIa type H extracellular domain with C-terminal His tag (human, UniProt P12318 34-217); test: SPR, captured antibody, FcgR analyte
T1 construct: extracellular domain; also called FcgRIIaH; FcγRIIa H
T1 sequence (looked up): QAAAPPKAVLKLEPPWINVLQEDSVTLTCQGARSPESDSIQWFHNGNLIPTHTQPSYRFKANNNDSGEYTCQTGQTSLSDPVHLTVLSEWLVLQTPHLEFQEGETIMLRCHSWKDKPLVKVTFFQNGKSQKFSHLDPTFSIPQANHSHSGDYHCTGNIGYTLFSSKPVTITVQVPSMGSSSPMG
Experimental: (§1) Relative binding activities were calculated for the results of analyzing interactions with the respective FcγRs according to the following method.

Binder	relative binding activity
B1	162 relative (IL6R-BF648/IL6R-L = 100)
B2	191 relative (IL6R-BF648/IL6R-L = 100)
B3	409 relative (IL6R-BF648/IL6R-L = 100)
B4	401 relative (IL6R-BF648/IL6R-L = 100)
B5	582 relative (IL6R-BF648/IL6R-L = 100)
B6	294 relative (IL6R-BF648/IL6R-L = 100)
B7	186 relative (IL6R-BF648/IL6R-L = 100)
B8	259 relative (IL6R-BF648/IL6R-L = 100)
B9	188 relative (IL6R-BF648/IL6R-L = 100)
B10	224 relative (IL6R-BF648/IL6R-L = 100)
B11	224 relative (IL6R-BF648/IL6R-L = 100)
B12	203 relative (IL6R-BF648/IL6R-L = 100)
B13	395 relative (IL6R-BF648/IL6R-L = 100)
B14	344 relative (IL6R-BF648/IL6R-L = 100)
B15	368 relative (IL6R-BF648/IL6R-L = 100)
B16	621 relative (IL6R-BF648/IL6R-L = 100)
B17	195 relative (IL6R-BF648/IL6R-L = 100)
B18	205 relative (IL6R-BF648/IL6R-L = 100)
B19	226 relative (IL6R-BF648/IL6R-L = 100)
B20	548 relative (IL6R-BF648/IL6R-L = 100)
B21	224 relative (IL6R-BF648/IL6R-L = 100)
B22	203 relative (IL6R-BF648/IL6R-L = 100)
B23	179 relative (IL6R-BF648/IL6R-L = 100)
B24	462 relative (IL6R-BF648/IL6R-L = 100)
B25	166 relative (IL6R-BF648/IL6R-L = 100)
B26	770 relative (IL6R-BF648/IL6R-L = 100)
B27	253 relative (IL6R-BF648/IL6R-L = 100)
B28	183 relative (IL6R-BF648/IL6R-L = 100)

molecular target: T2, FcγRIa extracellular domain with C-terminal His tag (human, UniProt P12314 16-292); test: SPR, captured antibody, FcgR analyte
T2 construct: also called FcgRIa
T2 sequence (P12314 16-292): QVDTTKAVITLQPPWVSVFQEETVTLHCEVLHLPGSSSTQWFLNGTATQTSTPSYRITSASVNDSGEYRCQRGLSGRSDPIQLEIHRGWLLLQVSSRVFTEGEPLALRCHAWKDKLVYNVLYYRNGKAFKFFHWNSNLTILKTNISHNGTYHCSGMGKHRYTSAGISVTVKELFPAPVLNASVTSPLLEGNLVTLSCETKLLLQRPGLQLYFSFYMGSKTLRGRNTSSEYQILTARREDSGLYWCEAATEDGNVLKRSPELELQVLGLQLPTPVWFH
Experimental: as §1

Binder	relative binding activity
B1	109 relative (IL6R-BF648/IL6R-L = 100)
B2	83 relative (IL6R-BF648/IL6R-L = 100)
B3	57 relative (IL6R-BF648/IL6R-L = 100)
B4	29 relative (IL6R-BF648/IL6R-L = 100)
B5	24 relative (IL6R-BF648/IL6R-L = 100)
B6	71 relative (IL6R-BF648/IL6R-L = 100)
B7	43 relative (IL6R-BF648/IL6R-L = 100)
B9	104 relative (IL6R-BF648/IL6R-L = 100)
B10	104 relative (IL6R-BF648/IL6R-L = 100)
B11	41 relative (IL6R-BF648/IL6R-L = 100)
B13	69 relative (IL6R-BF648/IL6R-L = 100)
B14	68 relative (IL6R-BF648/IL6R-L = 100)
B15	43 relative (IL6R-BF648/IL6R-L = 100)
B16	39 relative (IL6R-BF648/IL6R-L = 100)
B17	89 relative (IL6R-BF648/IL6R-L = 100)
B18	68 relative (IL6R-BF648/IL6R-L = 100)
B19	39 relative (IL6R-BF648/IL6R-L = 100)
B20	34 relative (IL6R-BF648/IL6R-L = 100)
B21	50 relative (IL6R-BF648/IL6R-L = 100)
B22	29 relative (IL6R-BF648/IL6R-L = 100)
B23	33 relative (IL6R-BF648/IL6R-L = 100)
B24	33 relative (IL6R-BF648/IL6R-L = 100)
B25	25 relative (IL6R-BF648/IL6R-L = 100)
B26	30 relative (IL6R-BF648/IL6R-L = 100)
B27	33 relative (IL6R-BF648/IL6R-L = 100)
B28	56 relative (IL6R-BF648/IL6R-L = 100)

molecular target: T3, FcγRIIb extracellular domain with C-terminal His tag (human, UniProt P31994 43-217); test: SPR, captured antibody, FcgR analyte
T3 construct: extracellular domain; also called FcgRIIb
T3 sequence (looked up): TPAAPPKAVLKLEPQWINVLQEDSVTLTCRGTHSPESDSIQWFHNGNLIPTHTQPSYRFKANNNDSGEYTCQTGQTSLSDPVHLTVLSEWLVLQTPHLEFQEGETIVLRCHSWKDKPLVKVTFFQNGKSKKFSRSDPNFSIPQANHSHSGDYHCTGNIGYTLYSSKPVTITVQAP
Experimental: as §1

Binder	relative binding activity
B1	141 relative (IL6R-BF648/IL6R-L = 100)
B2	164 relative (IL6R-BF648/IL6R-L = 100)
B3	177 relative (IL6R-BF648/IL6R-L = 100)
B4	173 relative (IL6R-BF648/IL6R-L = 100)
B5	177 relative (IL6R-BF648/IL6R-L = 100)
B6	179 relative (IL6R-BF648/IL6R-L = 100)
B7	147 relative (IL6R-BF648/IL6R-L = 100)
B8	179 relative (IL6R-BF648/IL6R-L = 100)
B9	164 relative (IL6R-BF648/IL6R-L = 100)
B11	152 relative (IL6R-BF648/IL6R-L = 100)
B12	156 relative (IL6R-BF648/IL6R-L = 100)
B13	178 relative (IL6R-BF648/IL6R-L = 100)
B15	175 relative (IL6R-BF648/IL6R-L = 100)
B17	157 relative (IL6R-BF648/IL6R-L = 100)
B18	157 relative (IL6R-BF648/IL6R-L = 100)
B19	177 relative (IL6R-BF648/IL6R-L = 100)
B20	178 relative (IL6R-BF648/IL6R-L = 100)
B22	179 relative (IL6R-BF648/IL6R-L = 100)
B23	137 relative (IL6R-BF648/IL6R-L = 100)
B24	176 relative (IL6R-BF648/IL6R-L = 100)
B25	161 relative (IL6R-BF648/IL6R-L = 100)
B26	183 relative (IL6R-BF648/IL6R-L = 100)
B28	177 relative (IL6R-BF648/IL6R-L = 100)

molecular target: T4, FcγRIIb (human, UniProt P31994 43-217); test: SPR (Biacore), captured antibody, soluble FcγR
T4 construct: extracellular domain; also called FcgRIIb; CD32B
T4 sequence (looked up): T3 sequence (looked up)

Binder	Kd [nM]
B29	28

molecular target: T5, FcγRIa (human, UniProt P12314 16-292); test: SPR (Biacore), captured antibody, soluble FcγR
T5 construct: Whole entry named; also called FcgRIa; CD64A
T5 sequence (P12314 16-292): as the sequence (P12314 16-292) above

Binder	Kd [nM]
B29	1.1

Molecular target: T6, FcγRIIa type R (human, UniProt P12318 34-217)
T6 chain: T1 sequence (looked up) with H134R
Test: SPR (Biacore), captured antibody, soluble FcγR

Binder	Kd [nM]
B29	1600

molecular target: T4, FcγRIIb; test: SPR (Biacore); parent = IL6R-B3/IL6R-L

Binder	KD(IIb) of the parent polypeptide/KD(IIb) of the altered polypeptide [fold]
B29	110

Molecular target: T6, FcγRIIa type R
Test: SPR (Biacore); parent = IL6R-B3/IL6R-L

Binder	KD(IIaR) of the parent polypeptide/KD(IIaR) of the altered polypeptide [fold]
B29	0.7
